Experiment [1] addresses secreted form of RSV G from strain A2 (sG) (human respiratory syncytial virus strain A2).
The target in experiment [2] is T1, 45-residue synthetic peptide encompassing the subtype A RSV G central conserved region (G peptide) (Human respiratory syncytial virus A …, not fully specified; N-terminal biotin coupling as the last step in synthesis; disulfide bonds of the cystine noose formed by oxidative folding).
T1 construct: attachment glycoprotein G of human RSV subtype A, central conserved region, residues Asn153-Lys197 (45 residues); also called RSV G peptide; subtype A RSV G peptide; source: synthetic peptide (Fmoc solid phase, HPLC), oxidatively folded
T1 chain: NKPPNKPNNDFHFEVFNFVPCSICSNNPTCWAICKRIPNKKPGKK
Description: SPR; G peptide (or its reduced and alkylated form) immobilised on a CM5 chip by primary-amine coupling (25 RU), Biacore X100; Fab in serial 2-fold dilutions in HBS-P+ (CB002.5 25 nM-98 pM, CB017.5 100 nM-195 pM; on the reduced and alkylated peptide CB002.5 1,000-1.95 nM, CB017.5 62.5-1.95 nM); 1:1 binding model. Particulars: both partners purified. (In general: Surface plasmon resonance follows binding to a sensor surface in real time, without labels.)

Experiment [3] deals with reduced and alkylated form of the G peptide (human respiratory syncytial virus subtype A) (UniProt P03423). The description is as above.
In experiment [4] the target is T2, secreted form of RSV G from strain A2 (sG) (Human respiratory syncytial virus A, …, UniProt P03423, strain).
T2 construct: attachment glycoprotein G of human respiratory syncytial virus strain A2, secreted form (sG); also called RSV sG; wild-type RSV sG from strain A2; source: FreeStyle 293-F, transfected, purified from supernatant (Strep-Tactin, SEC); not shown: 8xHis, C-terminal, kept
Kind of experiment: SPR; sG captured by its C-terminal 8xHis tag on an NTA sensor chip (60-150 RU), Biacore X100; Fab in serial 3-fold dilutions from 300 nM to 46.5 pM in HBS-P+; double-reference subtracted, 1:1 binding model. As to conditions: both partners purified.

In experiment [5] the target is T3, 32-residue peptide encompassing RSV G Phe165-Lys196, subtype B (Human respiratory syncytial virus …, UniProt O36633, strain).
T3 construct: attachment glycoprotein G of human RSV subtype B, residues Phe165-Lys196; The tested set is a series of alanine mutants of this peptide; source: covalently linked peptides on Pepscan cards
T3 chain: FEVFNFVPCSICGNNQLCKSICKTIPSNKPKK
Kind of experiment: peptide or protein array; Pepscan-based ELISA: peptides covalently linked in the wells of cards, mAb at 1-10 ng/mL overnight at 4°C in PBS with horse serum, OVA and Tween 80; HRP-linked anti-human IgG, ABTS. Particulars: both partners purified. Background: An ELISA detects its analyte on a solid surface through an enzyme-linked reagent.

B1: CB002.5 IgG (antibody, V domains shown)
VH: QVQLQESGPRLVKPSETLSLTCTVSGGSTSSYFWNWIRQPPGKGLEWIGYIYGSGSADYNPSLKSRVTISIDTSKTQFSLKLTSVTAADTAVYYCARSGFCSDDACYRRGSWFDPWGQGTLVTVSS
VL: DIQMTQSPSSLSASVGDRVTITCRASQSIDNYLNWYQQKPGKAPKLLIYAASGLQSGVPSRFSGSGSGTEFTLTVSSLHPEDFATYYCQQSYSTLTWTFGQGTKVEIK
Take B1: the IC50 of neutralization of RSV (rgRSV224) infection of primary HBECs at an air-liquid interface, in the absence of complement; pair that is blocked: RSV G and CX3CR1 in experiment [1] was found to be 4.7 nM.

B2: Fab CB002.5 (Fab, V domains shown)
VH: QVQLQESGPRLVKPSETLSLTCTVSGGSTSSYFWNWIRQPPGKGLEWIGYIYGSGSADYNPSLKSRVTISIDTSKTQFSLKLTSVTAADTAVYYCARSGFCSDDACYRRGSWFDPWGQGTLVTVSS
VL: DIQMTQSPSSLSASVGDRVTITCRASQSIDNYLNWYQQKPGKAPKLLIYAASGLQSGVPSRFSGSGSGTEFTLTVSSLHPEDFATYYCQQSYSTLTWTFGQGTKVEIK
notes: human; Fab cut with papain from full-length IgG1; source: IgG from FreeStyle 293-F or PER.C6 cells, transfected, Protein A; Fab by papain digestion, purified (Protein A flow-through, SEC)
One may read the Kd as the free concentration of one partner at which half of the binding sites on the other are occupied at equilibrium, for simple one-to-one binding. Low values mean a tighter complex, high ones a looser complex. On to B2, for which the Kd came to 0.52 nM in experiment [2], 18000 nM in experiment [3] and 3.3 nM in experiment [4].

B3: CB017.5 IgG (antibody, V domains shown)
VH: QVQLVESGGGVVQPGRSLRLSCSASGFTFSVYAMHWVRQAPGQGLEWVAIIWYDGSNKYYADSVKGRFTISRDNSKETLYLQMNSLRVEDTAVYYCARDPIVGHTRDGLDVWGQGTTVTVSS
VL: SYELTQPPSVSVSPGQTARVTCSGDAMAEQYTYWYQQKPGQAPVLIIFKDTERPSGIPERFSGSSSGTTVTLTISGVQTEDEADYYCQSTDSSGTSWVFGGGTKLTVL
notes: as the light chain of m2 (PDB 6BLH); full-length IgG1; also called antibody CB017.5; source: FreeStyle 293-F or PER.C6 cells, transfected, purified (Protein A)
B3: the binding result in experiment [5] is reported as “binds”. Besides, the IC50 of neutralization of RSV (rgRSV224) infection of primary HBECs at an air-liquid interface, in the absence of complement; pair that is blocked: RSV G and CX3CR1 in experiment [1] is 45.4 nM.

B4: Fab CB017.5 (Fab, V domains shown)
VH: QVQLVESGGGVVQPGRSLRLSCSASGFTFSVYAMHWVRQAPGQGLEWVAIIWYDGSNKYYADSVKGRFTISRDNSKETLYLQMNSLRVEDTAVYYCARDPIVGHTRDGLDVWGQGTTVTVSS
VL: SYELTQPPSVSVSPGQTARVTCSGDAMAEQYTYWYQQKPGQAPVLIIFKDTERPSGIPERFSGSSSGTTVTLTISGVQTEDEADYYCQSTDSSGTSWVFGGGTKLTVL
notes: as for B2
With B4, the figures for the Kd in experiment [2], in experiment [3] and in experiment [4] were 4.1 nM, 27 nM and 2.4 nM, respectively.

These data come from publication PMC5856423, “Structural basis for recognition of the central conserved region of RSV G by neutralizing human antibodies” (PLoS Pathogens, 2018).
